Drawing on US20140315253A1, this text covers Kd for two substances.

In the experiment the target is type I collagen (collagen membrane or collagen gel). The experiment is described as follows: modified ELISA on type I collagen membrane (6.0 mg), Kd calculated by Matsushita's method.

pKd: −log10 of the molar value.

Take “CBD-NGF, histidine-affinity tagged fusion protein comprising the collagen binding domain and beta-NGF mature peptide”: the negative-log Kd (pKd) is 6.29.

Consider “NAT-NGF, beta-NGF mature peptide with the histidine-affinity tag (ligand)”, for which the pKd is 5.82.

By pKd is commonly meant the negative decadic logarithm of the Kd, by convention in mol/L.
